Source: the supplement of paper PMC9170038

Tested on: MS2 coat protein
Test: apparent KD of MS2 coat protein; designed switch direction (-1 OFF switch, 1 ON switch): -1; higher = weaker reporter binding
Method in brief: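 Apparent KD, taken as the median over clusters for each design, was obtained by curve-fitting normalised cluster fluorescence. Designed RNA switches had been transcribed on Illumina chips by stalled E. coli RNA polymerase and titrated with SNAP-549-labelled MS2 coat protein, doubling from 0.7 or 1.5 nM to 3 µM.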

[1] = Eterna round: R95, input ligand: microRNA oligo, concentration not stated
[2] = input ligand: microRNA oligo, concentration not stated
[3] = Eterna round: R95, input ligand: FMN 200 uM
[4] = Eterna round: R95, input ligand: none

## GGCAUGUAAGGAUAUGCCACCGAGUGCUUUGCGCUCGGUAAGCAGAAGGUACAUGAGGAUCACCCAUGUGAUAA [jl-ex4-4.55 ViennaUCT mod] (Eterna round: R97, puzzle: Exclusion 4)
Input ligand: FMN 200 uM
  apparent KD of MS2 coat protein: 132 nM
Input ligand: none
  apparent KD of MS2 coat protein: 660 nM

## GGCCCACAUGAGGAUCACCCAUGUGAGGAUAUGUUAGUUUCGGCGAAAGCCGAAAUUAACAGAAGGCACAGGCC [JR_Exclusion1_Sub022] (puzzle: Exclusion 1)
[1]
  apparent KD of MS2 coat protein: 10.8 nM

## GGCCGUAAUAAGGAUAUCACUAGCUGCGGCUAGUGAGAAGGUAUUACAUGAGGAUCACCCAUGUGGUCAGGCCA [E6/4-B3] (Eterna round: R97, puzzle: Exclusion 6)
Input ligand: FMN 200 uM
  apparent KD of MS2 coat protein: 1060 nM
Input ligand: none
  apparent KD of MS2 coat protein: 284 nM

## GGCCUACAUGAGGAUCACCCAUGUAAGGAUAUCAAGUCGGGCUCCAAGGAAGCCCAUAUGAGAAGGUAUUUGGG [Eternabot (L2) Solution 32] (Eterna round: R97, puzzle: Exclusion 1)
Input ligand: FMN 200 uM
  apparent KD of MS2 coat protein: 116 nM
Input ligand: none
  apparent KD of MS2 coat protein: 25.3 nM

## GGCCUUCCGCAAGCUUUUUACAUGAGGAUCACCCAUGUGAUUUUUAGUCUUAUGCCCGGGCCCGUGUGGGCCCGGGC [-34.8, -55.6, A 14%] (Eterna round: R97, puzzle: Sensor, turn-off variant 1)
Input ligand: FMN 200 uM
  apparent KD of MS2 coat protein: 23.4 nM
Input ligand: none
  apparent KD of MS2 coat protein: 23.1 nM

## GGCUCGCCUCACAUGAGGAUCACCCAUGUACAAAACAAGAGGCAGGAUAUGGGCCGCGCAGCGGGCCAGAAGGGCCGCAUGGGU [Edsodidige] (Eterna round: R96, puzzle: Exclusion NG 3)
Input ligand: FMN 200 uM
  apparent KD of MS2 coat protein: 62.9 nM
[2]
  apparent KD of MS2 coat protein: 67.7 nM
Input ligand: none
  apparent KD of MS2 coat protein: 113 nM

## GGGCCCGGUGUGAGGAUAUUUCGAGUGAAAGCUUGAGAGAAGGCACAUGAGGAUCACCCAUGUAAGCCGGGCCC [-36.4, -34.3 kcal, A 26%, 1bis-0] (Eterna round: R97, puzzle: Brourd's mod of Exclusion 4)
Input ligand: FMN 200 uM
  apparent KD of MS2 coat protein: 15.1 nM
Input ligand: none
  apparent KD of MS2 coat protein: 17.8 nM

## GGGCUGUCAGGAUAUACAUGAGGAUCACCCAUGUCGAGCUGUGAUAGGGCAAGAGUAGGUAGAAGGGACGAGAG [JR_Exclu3_Sub042] (puzzle: Exclusion 3)
[1]
  apparent KD of MS2 coat protein: 30.5 nM

## GGGUAGUGAGGAUAUCGUUGUUAGGAGGAGUAGGUAGGAGGCGAGAAGGCACAUGAGGAUCACCCAUGUAUGAG [JR_Exclu4_Sub065] (puzzle: Exclusion 4)
[1]
  apparent KD of MS2 coat protein: 25.5 nM

## GGGUGACAUGAGGAUCACCCAUGUCAGGAUAUGAUUCUGCUUGCGAAAGCGAGUAGAAUCAGAAGGGACAACCC (Eterna round: R97, puzzle: Exclusion 1)
Input ligand: FMN 200 uM
  apparent KD of MS2 coat protein: 359 nM
Input ligand: none
  apparent KD of MS2 coat protein: 57 nM

## GGUACCUCUGUUAGGAUAUUGUUAGUGUGAAGCGACGAGAAGGAACAUGAGGAUCACCCAUGUUGCAUCGUAAA [Eternabot (L2) Solution 54] (Eterna round: R97, puzzle: Brourd's mod of Exclusion 4)
Input ligand: FMN 200 uM
  apparent KD of MS2 coat protein: 152 nM
Input ligand: none
  apparent KD of MS2 coat protein: 27.1 nM

## GGUACUAACACGAAAGUGUUAGUACUAUAAGUUUGUGUUACAUGAGGAUCACCCAUGUCCUCAUAAGCUCGUCUUGU [JL-sv3-2.20 mat747 mod] (puzzle: Sensor v3, turn-off variant 2)
[3]
  apparent KD of MS2 coat protein: 623 nM
[1]
  apparent KD of MS2 coat protein: 59.6 nM
[4]
  apparent KD of MS2 coat protein: 685 nM

## GGUACUAACACGAGAGUGUUAGUACAAUAAGCUUGUGUUACAUGAGGAUCACCCAUGUCCUCAUAAGCUCGUCUUAU [Mat - Sensor v3 - Turn-off var 2 - D57] (puzzle: Sensor v3, turn-off variant 2)
[3]
  apparent KD of MS2 coat protein: 107 nM
[1]
  apparent KD of MS2 coat protein: 30.8 nM
[4]
  apparent KD of MS2 coat protein: 124 nM

## GGUAGUUCAGAUCCACAUGAGGAUCACCCAUGUUAAAGGAUCUAGGAUAUCGGGACAUCGAUGCCCGAGAAGGAGACUUUAGCG [Eternabot solution 39] (Eterna round: R96, puzzle: Exclusion NG 3)
Input ligand: FMN 200 uM
  apparent KD of MS2 coat protein: 173 nM
[2]
  apparent KD of MS2 coat protein: 100 nM
Input ligand: none
  apparent KD of MS2 coat protein: 101 nM

## GGUCAGAUGGUAGGAUAUCCAUAUUGAGUGACCCUUUCAUAACAUGAGGAUCACCCAUGUCGGUGGGAGAAGGGCCGUACGGCG [salish99_ExNG02_R04_015] (Eterna round: R96, puzzle: Exclusion NG 2)
Input ligand: FMN 200 uM
  apparent KD of MS2 coat protein: 176 nM
[2]
  apparent KD of MS2 coat protein: 71.2 nM
Input ligand: none
  apparent KD of MS2 coat protein: 114 nM

## GGUCCACAUGAGGAUCACCCAUGUUAGGAUAUCUCGCCCGAGUCGUUAUGGGCCGGGCAGAGAAGGAAUGUGAA [Redion] (puzzle: Exclusion 1)
[1]
  apparent KD of MS2 coat protein: 17.9 nM

## GGUCCGCAUGUCAGGAUAUACAUAUGGAUCAUAGAGUAGAAGGGACUUGAGGAUCACCCAAGUAACAAAAGAAG [Tiantere] (Eterna round: R97, puzzle: Brourd's mod of Exclusion 4)
Input ligand: FMN 200 uM
  apparent KD of MS2 coat protein: 60.1 nM
Input ligand: none
  apparent KD of MS2 coat protein: 21.3 nM

## GGUCCGUCAGUGAGGAUAUUGAGGAGGAGGAGGGACAAGAAGGCACAUGAGGAUCACCCAUGUAGGGACGGACG [Alacar 1st] (Eterna round: R97, puzzle: Brourd's mod of Exclusion 4)
Input ligand: FMN 200 uM
  apparent KD of MS2 coat protein: 46.4 nM
Input ligand: none
  apparent KD of MS2 coat protein: 21.2 nM

## GGUCCUCUGGUGAGGAUAUCUACCCAGGCAGCUGGAGAGAAGGCACAUGAGGAUCACCCAUGUAGCAGAAAACC [Enremadi] (puzzle: Brourd's mod of Exclusion 4)
[1]
  apparent KD of MS2 coat protein: 9.56 nM

## GGUCCUGAUGAUUUCCUAGACAUGAGGAUCACCCAUGUUUAUUUAUUUUGUUUUUAGCUUUUUGGUCGUCAAUAAUA [Mod-Hoo-honey-4] (Eterna round: R97, puzzle: Sensor, turn-off variant 1)
Input ligand: FMN 200 uM
  apparent KD of MS2 coat protein: 100 nM
Input ligand: none
  apparent KD of MS2 coat protein: 99.6 nM

## GGUCGAAAACAGCUCCGCGCUGCCCUCGACCGCUCAUUUACAUGAGGAUCACCCAUGUUUUUUGCUUGUCUUGUUUC [Esrionus] (puzzle: Sensor v3, turn-off variant 2)
[3]
  apparent KD of MS2 coat protein: 18.3 nM
[1]
  apparent KD of MS2 coat protein: 80.1 nM
[4]
  apparent KD of MS2 coat protein: 22.9 nM

## GGUCGACAUGAGGAUCACCCAUGUCAGGAUAUCUACAUUGAAGCUUCGGCUUCAAUGUAGAGAAGGGACAUAAU [E1/14-B1] (Eterna round: R97, puzzle: Exclusion 1)
Input ligand: FMN 200 uM
  apparent KD of MS2 coat protein: 35.3 nM
Input ligand: none
  apparent KD of MS2 coat protein: 30.1 nM

## GGUCGAGAACAGCUCCGCGCCGCCCUCGACCGCUCAUUUACAUGAGGAUCACCCAUGUUUUUUGCUUGUCUUGUUUC [Ceerar] (puzzle: Sensor v3, turn-off variant 2)
[3]
  apparent KD of MS2 coat protein: 20.6 nM
[1]
  apparent KD of MS2 coat protein: 98.4 nM
[4]
  apparent KD of MS2 coat protein: 23.4 nM

## GGUCGAGAAGUUAGGAUAUCGAUAAAACAGAAAUUUGAGAAGGGACUUGAGGAUCACCCAAGUUAUUGGUUCUC [Anaranle] (Eterna round: R97, puzzle: Brourd's mod of Exclusion 4)
Input ligand: FMN 200 uM
  apparent KD of MS2 coat protein: 17.8 nM
Input ligand: none
  apparent KD of MS2 coat protein: 19.6 nM

## GGUCGGCGAGGAUAUACAUGAGGAUCACCCAUGUGAUUUAGUGCACGCGUACGUGUACGUAGAAGGCGCUGACG [JL-ex3-3.27 salish99 mod] (puzzle: Exclusion 3)
[3]
  apparent KD of MS2 coat protein: 127 nM
[1]
  apparent KD of MS2 coat protein: 14 nM
[4]
  apparent KD of MS2 coat protein: 11.3 nM

## GGUCUUCAAGUCAGGAUAUCGUCUAAUAGAUCUAACGAGAAGGGACAUGAGGAUCACCCAUGUCGUCUCAUCAG [Ex4 #19] (Eterna round: R97, puzzle: Brourd's mod of Exclusion 4)
Input ligand: FMN 200 uM
  apparent KD of MS2 coat protein: 34.5 nM
Input ligand: none
  apparent KD of MS2 coat protein: 16.5 nM

## GGUGAGCUACUAGGAUAUCUAGGCUAUUUACCUAGAGAAGGAGUCGCCUUCCCUCGCGUAGAUACAUGAGGAUCACCCAUGUAU [Eternabot solution 50] (Eterna round: R96, puzzle: Exclusion NG 1)
Input ligand: FMN 200 uM
  apparent KD of MS2 coat protein: 16.9 nM
[2]
  apparent KD of MS2 coat protein: 14.1 nM
Input ligand: none
  apparent KD of MS2 coat protein: 18.1 nM

## GGUGAGCUAGGAUAUGCUUUGGGCCCGCAUUCCUUCGAUAAACUUGAGGAUCACCCAAGUAGAAGGAGCUUGCC [salish99_ex2_r4_031] (Eterna round: R97, puzzle: Exclusion 2)
Input ligand: FMN 200 uM
  apparent KD of MS2 coat protein: 30.4 nM
Input ligand: none
  apparent KD of MS2 coat protein: 17 nM

## GGUGCGUAUGUGAGGAUAUGCUGGUCCUUGGAUCAGCAGAAGGCACAUGAGGAUCACCCAUGUGGUGUCGUCCC [salish99_Bmod_Ex4_021] (puzzle: Brourd's mod of Exclusion 4)
[1]
  apparent KD of MS2 coat protein: 241 nM

## GGUGCGUAUGUGAGGAUAUGCUGGUCCUUGGCUCGGCAGAAGGCACAUGAGGAUCACCCAUGUGGUGUCGUUCC [salish99_Bmod_ex4_055] (puzzle: Brourd's mod of Exclusion 4)
[1]
  apparent KD of MS2 coat protein: 42.5 nM

## GGUGCGUUUGUGAGGAUAUGCUGGUCCUUGGAUCUGCAGAAGGCACAUGAGGAUCACCCAUGUGGUGUCGUACC [salish99_Bmod_Ex4_036] (puzzle: Brourd's mod of Exclusion 4)
[1]
  apparent KD of MS2 coat protein: 208 nM

## GGUGGACAUGAGGAUCACCCAUGUGAGGAUAUCGGCUGGCUAGCGGCGGAUGGCUUCUCGAGAAGGCGCAUAGU [Exclusion 1 V81] (puzzle: Exclusion 1)
[1]
  apparent KD of MS2 coat protein: 62.7 nM
